This passage reports percent of radioactive counts bound, affinity (親和性) and Kd results from JP2012233002A.

For experiment [1], the target named is 可溶性Aβ1−42 (soluble synthetic Aβ1-42 sonicated in DMSO, 125I-labelled) (human) (UniProt P05067). Kind of experiment: capture radioimmunoassay, 50,000 CPM 125I-Aβ1-42 (or 125I-Aβ1-40).
Experiment [2] concerns the target 凝集型Aβ1−42 (aggregated synthetic Aβ1-42) (human) (UniProt P05067). Kind of experiment: ELISA on aggregated synthetic Aβ1-42. (An ELISA detects its analyte on a solid surface through an enzyme-linked reagent.)
The target of experiment [3] is Aβ (β-amyloid peptide; length and physical form not specified in the assay) (human) (UniProt P05067). In words: BIAcore (SPR). For orientation: SPR reads the build-up and loss of mass on a sensor chip optically.
For experiment [4] the target is unchanged. In words: Biacore (SPR).

The Kd is the free concentration of one partner at which half of the binding sites on the other are occupied at equilibrium, for simple one-to-one binding. A high value points to weaker binding.

Bounds are passed on as bounds.

As to “マウス10D5 (mouse monoclonal antibody 10D5)”, the percent of radioactive counts bound at 10 μg/ml antibody in experiment [1] stood at 2%. In experiment [2], this substance returned an affinity (親和性) of under 1 nM. マウス3D6 (mouse monoclonal antibody 3D6) had a Kd in experiment [3] of 0.88 nM. “組換えマウス12A11Cγ2a(アイソタイプスイッチ12A11) (antibody)” gave a Kd in experiment [4] of 38 nM.
